B1: Dolichol-phosphate mannosyltransferase subunit 1 (Homo sapiens), O60762 (parent)
chain: MASLEVSRSPRRSRRELEVRSPRQNKYSVLLPTYNERENLPLIVWLLVKSFSESGINYEIIIIDDGSPDGTRDVAEQLEKIYGSDRILLRPREKKLGLGTAYIHGMKHATGNYIIIMDADLSHHPKFIPEFIRKQKEGNFDIVSGTRYKGNGGVYGWDLKRKIISRGANFLTQILLRPGASDLTGSFRLYRKEVLEKLIEKCVSKGYVFQMEMIVRARQLNYTIGEVPISFVDRVYGESKLGGNEIVSFLKGLLTLFATT
partner: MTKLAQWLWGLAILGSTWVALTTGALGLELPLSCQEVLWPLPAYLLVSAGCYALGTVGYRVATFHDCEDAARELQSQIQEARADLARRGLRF

Variants of: B1
Conditions: with dpm3_human DPM3, Q9P2X0

Row | effect of a mutation on the interaction | Variant
1 | disrupting interaction | G152V
